# Laboratory results from publication doi:10.1101/2022.10.06.511078.
# pKd: −log10 of the molar value.
# How the values were obtained:
# [1] = molecular target: Ubiquitin carboxyl-terminal hydrolase isozyme L1 (human) (UniProt P09936); assay: SPR
# Cofilin-1 (human) = Cofilin-1 (human) (UniProt P23528); assay: SPR
# Sequence of Cofilin-1 (human) (P23528 whole entry): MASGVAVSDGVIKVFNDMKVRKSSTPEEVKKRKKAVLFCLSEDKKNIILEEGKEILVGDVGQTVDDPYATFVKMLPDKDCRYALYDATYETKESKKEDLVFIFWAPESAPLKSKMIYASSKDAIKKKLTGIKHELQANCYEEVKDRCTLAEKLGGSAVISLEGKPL
# Sequence of Ubiquitin carboxyl-terminal hydrolase isozyme L1 (human) (P09936 whole entry): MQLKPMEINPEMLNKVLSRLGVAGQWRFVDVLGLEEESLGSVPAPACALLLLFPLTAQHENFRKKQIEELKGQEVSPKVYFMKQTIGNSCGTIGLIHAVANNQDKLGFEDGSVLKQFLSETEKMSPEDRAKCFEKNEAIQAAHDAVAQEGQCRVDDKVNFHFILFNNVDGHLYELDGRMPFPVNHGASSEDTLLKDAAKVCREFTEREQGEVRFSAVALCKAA
substance,measurement,setting,value
α-synuclein oligomer (from UniProt P37840 1-140) (natural protein),pKd,[1],6.22
same,pKd,Cofilin-1 (human),6.54
